Test results: the supplement of paper PMC10567573

B1: RHOBTB3 (parent)
chain: VSHVFMLLFNVKSPTDIQDSSIIR
B2: RHOBTB2 (parent)
chain: NQEITKAFHVRRTNRVKECLAKGT

Variants of: B1
Assay: protein stability index of a GFP-peptide fusion (GPS, HEK-293T) (PSI 1-6); higher = more stable
Conditions: c terminus: a fixed tail appended
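Note: lentivirally expressed fusions sorted by FACS into six bins by GFP to DsRed ratio, PSI derived from sequencing read proportions per bin multiplied by bin number.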

Protein stability index of substitutions, site by site:
P14: D 2.34 | L 2.04 | H 2.54 | C 5.86 | Y 3.96
F5: T 1.71 | E 2.3 | G 1.19 | M 1.44 | V 3.38 | P 2.04 | N 1.97 | C 2.99 | D 2.29 | K 1.84 | Y 3.79 | L 4.65 | I 2.31 | A 1.5 | Q 1.95 | S 1.95 | R 1.41 | H 2.29
K12: E 1.8 | N 1.99 | A 5.33 | C 1.55 | D 2.5 | R 3.32 | I 3.28 | V 4.26 | G 3.36 | H 2.15 | T 1.98 | M 3.63 | L 1.46 | Q 2.78 | Y 1.81 | W 4.11

Variants of: B2
Assay: as above
Conditions: c terminus: a fixed tail appended

Protein stability index, by site and new letter:
E18: I 1.94 | T 3.93 | A 3.08 | F 2.59 | L 2.83 | K 3.08 | P 2.59
N14: W 2.15 | G 3.17 | V 2.83 | C 1.88 | Y 1.82
R12: Q 3.93 | A 4.05 | M 3.29 | P 3.5 | K 4.31 | E 4.16
L20: P 2.39 | F 3.44 | D 3.98 | Q 3.74
I4: R 3.72 | W 3.21 | K 3.75 | G 4.42
N1: P 4.54 | L 2.31 | C 2.25 | S 3.94 | Y 2.26 | T 1.57
R11: F 3.62 | T 3.82 | G 4.05 | D 4.01 | C 3 | M 2.81 | N 4.05 | H 3.94 | L 3.21
T13: N 3.54 | D 4.09 | C 2.78 | Y 1.78
T5: L 2.86 | K 4.06 | V 3.51 | A 3.75 | S 3.48 | P 3.88 | R 3.7 | M 3.42 | Q 4.06
V16: Y 1.97 | C 2.51 | Q 2.79 | E 3.45 | D 4.7 | M 2.8
K17: D 3.64 | H 2.94 | L 3.12 | P 2.4 | C 2.22 | Y 2.36
K6: T 3.43 | M 2.29 | C 2.21 | G 3.49 | R 2.87 | D 4 | L 2.84
K22: P 3.04 | R 3.67 | A 4.19 | E 3.87 | I 2.58 | C 3.3
E3: R 3.02 | Y 2.23 | P 3.38 | G 3.15 | W 3.8 | I 2.57 | M 2.87
H9: R 2.87 | M 2.08 | C 2.65 | S 2.98 | E 4.58 | Y 3.2
F8: G 4.63 | R 4.67 | Y 3.37 | P 4.53 | N 4.39
A21: Q 2.65 | N 3.42 | C 1.94
T24: L 3.53 | I 2.16 | N 3.36 | P 3.65
R15: M 3.78 | W 2.58 | K 3.29 | I 3.12 | L 3.36 | S 3.54
G23: V 1.75 | K 4.17 | D 2.73
Q2: G 2.39 | M 3.01 | V 3.5
C19: W 2.35 | D 3.13 | T 3.65 | H 2.59 | M 2.78
A7: N 3.2 | W 3.34 | H 2.52
V10: W 3.35 | A 4.09 | G 3.46 | R 3.91
